Blank lines part the entries; values can stand above or below the molecule they belong to.
Columns and labels:
[1] = target: leucine-rich repeat kinase 2 (LRRK2) (UniProt Q5S007); assay: cryo-EM 2D classification; Rab29 T71A/S72A–LRRK2 complex; 2D classification performed with cross-correlation (fig. S9E); settings: remark: other sources report otherwise
[2] = target: leucine-rich repeat kinase 2 (LRRK2) (UniProt Q5S007); assay: cryo-EM structure; complex reconstituted by mixing LRRK2, Rab29EM, GTP analog (GppNHp), ATP and Mg2+; three oligomeric assemblies (monomer, dimer, tetramer); C2 symmetry imposed for dimer and tetramer; settings: remark: other sources report otherwise
[3] = target: T1, leucine-rich repeat kinase 2 (LRRK2) (UniProt Q5S007 1-2527); assay: as above; settings: both partners purified
T1 construct: leucine-rich repeat kinase 2 (LRRK2), wild type; domains ARM, ANK, LRR, ROC, COR, KIN, WD40; Near full-length LRRK2^peri could be modelled in the tetramer; Seen as monomer, dimer and tetramer in complex with Rab29; Also stands for the WT LRRK2 transfected into HEK293 cells in the functional rows; also called WT LRRK2; LRRK2^peri
T1 sequence (Q5S007 whole entry): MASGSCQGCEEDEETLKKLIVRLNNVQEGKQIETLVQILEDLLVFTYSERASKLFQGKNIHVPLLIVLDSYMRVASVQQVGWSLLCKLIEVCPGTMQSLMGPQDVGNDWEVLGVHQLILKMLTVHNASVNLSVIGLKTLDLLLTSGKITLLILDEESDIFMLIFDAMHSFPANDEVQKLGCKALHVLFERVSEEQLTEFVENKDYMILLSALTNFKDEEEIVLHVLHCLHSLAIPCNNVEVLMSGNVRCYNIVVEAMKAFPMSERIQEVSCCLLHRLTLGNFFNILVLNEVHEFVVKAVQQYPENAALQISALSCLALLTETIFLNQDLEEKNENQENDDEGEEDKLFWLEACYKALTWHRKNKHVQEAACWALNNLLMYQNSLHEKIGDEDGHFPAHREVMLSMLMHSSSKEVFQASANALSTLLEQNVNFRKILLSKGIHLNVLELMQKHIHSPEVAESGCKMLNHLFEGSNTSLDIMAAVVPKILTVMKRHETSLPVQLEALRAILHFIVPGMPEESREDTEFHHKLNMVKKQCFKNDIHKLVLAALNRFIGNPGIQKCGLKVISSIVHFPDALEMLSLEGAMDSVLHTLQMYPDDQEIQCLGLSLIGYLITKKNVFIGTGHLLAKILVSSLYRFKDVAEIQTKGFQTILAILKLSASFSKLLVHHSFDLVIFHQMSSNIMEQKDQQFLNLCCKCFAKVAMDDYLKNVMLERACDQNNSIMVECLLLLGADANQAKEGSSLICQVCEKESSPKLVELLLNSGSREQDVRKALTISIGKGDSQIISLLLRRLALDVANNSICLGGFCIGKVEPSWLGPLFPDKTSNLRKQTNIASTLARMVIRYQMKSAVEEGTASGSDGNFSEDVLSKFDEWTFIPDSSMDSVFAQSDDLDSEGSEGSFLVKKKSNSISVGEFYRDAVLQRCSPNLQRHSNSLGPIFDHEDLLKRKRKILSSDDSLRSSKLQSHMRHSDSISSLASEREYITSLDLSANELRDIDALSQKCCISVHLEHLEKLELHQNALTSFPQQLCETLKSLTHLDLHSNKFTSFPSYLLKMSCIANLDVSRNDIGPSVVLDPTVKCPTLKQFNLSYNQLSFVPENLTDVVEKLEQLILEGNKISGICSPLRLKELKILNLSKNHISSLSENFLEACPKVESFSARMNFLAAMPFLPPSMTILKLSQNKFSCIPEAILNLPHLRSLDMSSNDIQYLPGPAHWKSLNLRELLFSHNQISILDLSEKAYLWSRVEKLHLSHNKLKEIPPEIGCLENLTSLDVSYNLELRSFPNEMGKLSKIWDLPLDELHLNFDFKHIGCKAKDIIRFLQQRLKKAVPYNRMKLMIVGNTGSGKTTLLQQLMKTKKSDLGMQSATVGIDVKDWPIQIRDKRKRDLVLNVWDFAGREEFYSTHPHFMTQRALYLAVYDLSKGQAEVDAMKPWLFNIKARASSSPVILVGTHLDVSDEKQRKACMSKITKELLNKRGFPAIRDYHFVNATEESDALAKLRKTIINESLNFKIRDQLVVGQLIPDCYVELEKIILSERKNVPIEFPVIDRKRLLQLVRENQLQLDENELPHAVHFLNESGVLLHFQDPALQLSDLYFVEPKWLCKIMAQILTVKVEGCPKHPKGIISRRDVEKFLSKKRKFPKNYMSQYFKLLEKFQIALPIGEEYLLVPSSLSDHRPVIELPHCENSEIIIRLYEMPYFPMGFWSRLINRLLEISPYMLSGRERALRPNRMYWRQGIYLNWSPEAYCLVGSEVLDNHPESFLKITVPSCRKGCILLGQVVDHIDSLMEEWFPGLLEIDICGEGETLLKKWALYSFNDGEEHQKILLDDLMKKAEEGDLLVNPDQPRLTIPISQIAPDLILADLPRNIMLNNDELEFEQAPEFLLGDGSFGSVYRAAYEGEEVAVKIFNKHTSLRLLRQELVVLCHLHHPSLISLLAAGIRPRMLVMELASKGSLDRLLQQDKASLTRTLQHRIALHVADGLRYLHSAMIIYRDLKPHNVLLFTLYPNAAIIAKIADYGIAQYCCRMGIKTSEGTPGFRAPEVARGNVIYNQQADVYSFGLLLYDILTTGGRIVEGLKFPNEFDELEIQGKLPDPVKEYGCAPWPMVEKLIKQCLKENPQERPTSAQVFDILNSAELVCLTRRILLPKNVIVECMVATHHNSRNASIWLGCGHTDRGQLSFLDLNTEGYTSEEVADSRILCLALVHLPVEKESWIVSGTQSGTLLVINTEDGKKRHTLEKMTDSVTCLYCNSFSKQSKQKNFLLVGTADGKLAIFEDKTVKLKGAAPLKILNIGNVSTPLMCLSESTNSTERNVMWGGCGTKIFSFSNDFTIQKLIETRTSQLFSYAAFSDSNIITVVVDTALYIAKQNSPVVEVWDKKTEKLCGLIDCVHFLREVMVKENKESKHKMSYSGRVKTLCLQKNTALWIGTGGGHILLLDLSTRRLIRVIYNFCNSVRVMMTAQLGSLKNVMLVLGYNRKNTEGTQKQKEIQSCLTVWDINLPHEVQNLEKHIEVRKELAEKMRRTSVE

stoichiometry N [1]: 4
stoichiometry N [2]: 4
Molecule: leucine-rich repeat kinase 2 (LRRK2), Q5S007 1-2527

stoichiometry N [3]: 1
B1: Rab29EM (Rab29 Q67L, T71A, S72A) (natural protein)
chain: MGSRDHLFKVLVVGDAAVGKTSLVQRYSQDSFSKHYKSTVGVDFALKVLQWSDYEIVRLQLWDIAGLERFAAMTRLYYRDASACVIMFDVTNATTFSNSQRWKQDLDSKLTLPNGEPVPCLLLANKCDLSPWAVSRDQIDRFSKENGFTGWTETSVKENKNINEAMRVLIEKMMRNS
notes: Rab29, a Rab GTPase encoded in the PARK16 locus, with three point mutations; constructs are in the supplementary Materials and Methods; also called Rab29^peri

— publication PMC10786121, “Rab29-dependent asymmetrical activation of leucine-rich repeat kinase 2” (Science (New York, N.Y.), 2023)
